The results in this text go back to paper PMC4922585.

The target in experiment [1] is TF G164A-FVIIa complex on THP-1 cells (UniProt P13726).
Experiment [2] concerns the target TF S160A-FVIIa complex on THP-1 cells (UniProt P13726).
Experiment [3] has as its target Wild-type TF-FVIIa complex on THP-1 cells (UniProt P13726).
Experiment [4] has as its target TFLBR-FVIIa complex on THP-1 cells (UniProt P13726).
Experiment [5] has as its target Wild-type TF-FVIIa complex on THP-1 cells (UniProt P13726). This is another data set of the same source.

Regarding “Purified human factor X (natural protein)”, the Km of FX activation by TF-FVIIa on THP-1 cells (Michaelis-Menten kinetics) in experiment [1] amounted to 0.191 µM; in experiment [2], 0.117 µM; in experiment [3], 0.134 µM. Further, the Km of FX activation by TF-FVIIa on THP-1 cells treated with HgCl2 (100 μM, 5 min) (FVIIa 10 nM, FX 25 to 1000 nM) in experiment [4] was 0.223 µM; in experiment [5], 0.137 µM. Besides, the Km of FX activation by TF-FVIIa on THP-1 cells treated with control vehicle (FVIIa 10 nM, FX 25 to 1000 nM) in experiment [4] is 0.196 µM; in experiment [5], 0.187 µM.
